According to patent publication US20040131615A1, “Methods for treating pain by administering a nerve growth factor antagonist and an opioid analgesic and compositions containing the same” (priority 2002, published 2004):

Biological target: human NGF (Homo sapiens, UniProt P01138)
Assay: binding affinity; method not given

Chain of human NGF (P01138 122-241 limits assumed): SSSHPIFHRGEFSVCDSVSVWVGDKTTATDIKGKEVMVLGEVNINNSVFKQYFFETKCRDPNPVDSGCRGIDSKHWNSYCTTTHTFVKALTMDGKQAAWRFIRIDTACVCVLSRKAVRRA

- Kd: 70 pM
B1: humanized anti-NGF antibody E3 (antibody, V domains shown)
VH: VQLQESGPGLVKLPSETLSLTCTVSGFSLIGYDLNWIRQPPGKGLEWIGIIWGDGTTDYNSAVKSRVTISKDTSKNQFSLKLSSVTAADTAVYYCARGGYWYATSYYFDYWGQGTLVTVS
VL: DIQMTQSPSSLSASVGDRVTITCRASQSISNNLNWYQQKPGKAPKLLIYYTSRFHSGVPSRFSGSGSGTDFTFTISSLQPEDIATYYCQQEHTLPYTFGQGTKLEIK
